Measured values from US20260185163A1 (Dana-Farber, published 2026).
Changes are numbered by the printed parent chain. Ends that are not written are not given here. * marks the point of attachment. FITC = O=C1OC2(c3ccc(O)cc3Oc3cc(O)ccc32)c2ccc(NC(=S)*)cc21

How the values were obtained:
Experiment in all cases: fluorescence polarization; 1 nM FITC-MLL1 4-43(C-A) probe titrated with StrepII-Avi-TEV-Menin; one site total fit; mean±S.D., N=3
[1] = biological target: T1, StrepII-Avi-TEV-Menin (wild-type human Menin, recombinant, E. coli) (human, UniProt O00255 1-610)
T1 construct: also called WT Menin; WT-Menin
T1 sequence: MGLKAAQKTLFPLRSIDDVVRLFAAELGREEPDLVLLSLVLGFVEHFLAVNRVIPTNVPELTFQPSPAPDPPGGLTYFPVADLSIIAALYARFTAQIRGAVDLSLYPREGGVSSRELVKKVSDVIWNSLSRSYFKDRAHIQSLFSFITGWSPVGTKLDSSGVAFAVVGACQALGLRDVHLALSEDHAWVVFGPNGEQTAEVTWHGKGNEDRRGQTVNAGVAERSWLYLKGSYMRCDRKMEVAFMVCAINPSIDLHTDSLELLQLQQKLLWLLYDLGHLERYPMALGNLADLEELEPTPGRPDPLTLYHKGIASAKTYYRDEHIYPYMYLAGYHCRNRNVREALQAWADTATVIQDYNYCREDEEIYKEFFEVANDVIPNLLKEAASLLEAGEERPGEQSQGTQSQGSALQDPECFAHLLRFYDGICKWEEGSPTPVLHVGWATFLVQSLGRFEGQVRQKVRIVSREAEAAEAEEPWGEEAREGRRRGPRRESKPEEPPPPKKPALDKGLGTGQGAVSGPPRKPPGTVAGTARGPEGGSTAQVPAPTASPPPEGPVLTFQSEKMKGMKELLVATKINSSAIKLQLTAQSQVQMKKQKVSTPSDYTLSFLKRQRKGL
Experimental: (§1) To derive the FITC-MLL1₄₋₄₃(C-A) peptide Kd. FITC-conjugated MLL1₄₋₄₃(C-A) peptide probe at final concentration of 1 nM was mixed with increasing concentration of purified StrepII-Avi-TEV-Menin (5 μM final top concentration, 2-fold, 23-point dilution and a buffer control) in an assay buffer (50 mM Tris pH 7.5, 200 mM NaCl, 0.1% Pluronic F-68 solution (Sigma)) in 384-well microplates at 15 μL assay volume (Corning, 4514) and incubated for 30 min at room temperature (RT). For all assays change in fluorescence polarization was monitored using a PHERAstar FS microplate reader (BMG Labtech). […] In competitive titration experiments Menin proteins (1 nM WT, 1 nM M327I or 3 nM for T349M) and 1 nM FITC-conjugated MLL1₄₋₄₃(C-A) peptide probe were incubated in an assay buffer for 30 min. SNDX-5613 was then dispensed to 384-well microplate (Corning, 4514) containing 15 μL of the assay mix using D300e Digital Dispenser (HP) and normalized to 1% DMSO followed by 90 min incubation. The fluorescence polarization was monitored by PHERAstar FS microplate reader (BMG Labtech). The MLL1₄₋₄₃(WT) and MLL1₄₋₄₃(C-A) peptide titrations were performed by addition of 7.5 μL of 2-fold 23-point serial dilution into 7.5 μL of assay mix with the final concentrations of 1 nM FITC-conjugated MLL₄₋₄₃ peptide probe, 1 nM WT Menin or 1 nM Menin M327I or 3 nM Menin T349M in assay buffer. The fluorescence polarization was monitored by PHERAstar FS microplate reader (BMG Labtech). For analysis of the competitive titration experiments the last 10 cycles of the data were averaged to obtain technical replicates. Data from three independent replicates (n=3) was plotted and IC₅₀ values estimated using variable slope equation in GraphPad Prism 9. The calculation of Kᵢ values was performed using Kᵢ calculator available at websites.umich.edu/˜shaomengwanglab/software/calc_ki/index.html²³.

[2] = biological target: T2, StrepII-Avi-TEV-Menin T349M (recombinant mutant human Menin) (human, UniProt O00255 1-610)
T2 construct: The mutant plasmid was made from the wild-type StrepII-Avi-TEV Menin construct; also called T349M-mutant Menin; T349M Menin
T2 sequence: T1 sequence with T349M
Experimental: as §1

[3] = biological target: T3, StrepII-Avi-TEV-Menin M327I (recombinant mutant human Menin) (human, UniProt O00255 1-610)
T3 construct: The mutant plasmid was made from the wild-type StrepII-Avi-TEV Menin construct; also called M327I-mutant Menin; M327I Menin
T3 sequence: T1 sequence with M327I
Experimental: as §1

Kd [1]: 0.76 nM
Kd [2]: 2.99 nM
Kd [3]: 0.91 nM
B1: N-terminal FITC-conjugated MLL1 4-43(C-A) peptide probe (peptide)
peptide: {FITC}-SARWRFPARPGTTGGGGGGGRRGLGGAPRQRVPALLLPPGY
modifications: not fully specified
notes: also called FITC-MLL14-43(C-A) peptide; MLL1 peptide
